{
  "source": "patent US20160130303A1",
  "about": "(RAMOT AT TEL AVIV UNIVERSITY, published 2016)",
  "molecular_target": "wild-type (WT) GSK-3β (human, UniProt P49841 1-420, phosphorylated at Tyr 216 (shown by western blot))",
  "sequence (P49841 other isoform, or with tags, fused parts or gaps limits assumed)": "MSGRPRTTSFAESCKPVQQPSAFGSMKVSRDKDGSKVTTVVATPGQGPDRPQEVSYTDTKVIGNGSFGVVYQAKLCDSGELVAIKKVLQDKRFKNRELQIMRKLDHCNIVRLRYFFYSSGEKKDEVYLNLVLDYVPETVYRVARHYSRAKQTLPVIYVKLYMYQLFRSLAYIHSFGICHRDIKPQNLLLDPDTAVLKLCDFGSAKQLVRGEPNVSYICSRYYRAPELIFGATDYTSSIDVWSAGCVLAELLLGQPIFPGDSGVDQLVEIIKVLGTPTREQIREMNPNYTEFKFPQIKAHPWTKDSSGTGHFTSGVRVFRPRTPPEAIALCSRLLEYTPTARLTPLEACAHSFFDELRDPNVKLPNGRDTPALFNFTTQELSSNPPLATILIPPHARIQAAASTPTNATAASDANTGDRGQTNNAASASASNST",
  "test": "cell-based or functional assay",
  "note": "Where no end group is shown, it is not given here. [ ]: non-standard residue; d: D form. The star is where a group is joined. Myristoyl = CCCCCCCCCCCCCC(=O)*; pS = N[C@@H](COP(=O)(O)O)C(=O)O",
  "data": [
    {"binder": "KEAPPAPPA[pS]P", "note": "[PQ9A (L803 variant where Gln9 was replaced by alanine)]", "values": [
      {"measurement": "inhibition of GSK-3β in in vitro kinase assays (substrate phosphorylation, no inhibitor = 100%)", "value": "~2 fold relative to L803"}
    ]},
    {"binder": "Myristoyl-GKEAPPAPPP[pS]P", "note": "[L806-mts, Myr-GKEAPPAPPPS(p)P]", "values": [
      {"measurement": "IC50, in vitro kinase assays with GSK-3β at increasing inhibitor concentrations", "value": "~1000", "unit": "nM"}
    ]}
  ]
}
